Literature values as cited in publication PMC8666702 (Hypertension (Dallas, Tex. : 1979), 2021).

Columns and labels:
[1] = test system: insulin degrading enzyme (IDE)

Substance: atrial natriuretic peptide [ANP]
- Degradation by neprilysin (NEP) (neprilysin (NEP)): rapid degradation
- Degradation by insulin degrading enzyme (IDE) [1]: rapid degradation
